Details: Streptomyces albogriseolus, Thermal, DSC, reversible: yes, whole UniProt chain shown

B1: Subtilisin inhibitor wild type, P01006 (protein)
chain: MRNTGAGPSPSVSRPPPSAAPLSGAALAAPGDAPSALYAPSALVLTVGKGVSATTAAPERAVTLTCAPGPSGTHPAAGSACADLAAVGGDLNALTRGEDVMCPMVYDPVLLTVDGVWQGKRVSYERVFSNECEMNAHGSSVFAF
For B1, the unfolding free energy (pH 3.2, 53.36 °C, glycine 25 mM) was 5.55 kcal/mol, the Tm (pH 3.2, glycine 25 mM) was 53.4 °C and the “unfolding enthalpy (calorimetric)” value (pH 3.2, glycine 25 mM) was 106 kcal/mol. The unfolding free energy (pH 7, 82.21 °C, Sodium phosphate 25 mM) was 6.03 kcal/mol, the Tm (pH 7, Sodium phosphate 25 mM) was 82.2 °C and the “unfolding enthalpy (calorimetric)” value (pH 7, Sodium phosphate 25 mM) was 190 kcal/mol. The unfolding free energy (pH 9.5, 80.7 °C, glycine 25 mM) was 6.04 kcal/mol, the Tm (pH 9.5, glycine 25 mM) was 80.7 °C and the “unfolding enthalpy (calorimetric)” value (pH 9.5, glycine 25 mM) was 186 kcal/mol.
